The source of these data is patent publication US7271245B2, “Methods and compositions for inhibition of metastasis” (The Scripps Research Institute, priority 2004, dated 2007).

Assay [1] deals with BMS human breast cancer cells. As to the kind of experiment: Tumor cell adhesion under stationary conditions. The format is cell-based. The settings on record: 200 μM peptide, 30 min at 37° C. Here is the method:
(§1) FIGS. 3A, 3B, 3C, 3D, 3E. scFv Bc-12 and Bc-15 inhibit αvβ3 mediated adhesive breast cancer cell functions. (A) Adhesion of BMS human breast cancer cells to fibrinogen (Fg), vitronectin (VN) or type I collagen (Col I) in the absence or presence of 3 μM Bc-12, Bc-15 or their RGE mutants Mut-12, Mut-15, compared to 200 μM GRGDSPK peptide (SEQ ID NO: 11). Protein coating concentrations: 10 μg/ml (VN, Col I) or 20 μg/ml (Fg). Adhesion time: 30 min at 37° C. (B) Effect of scFvs on haptotactic BMS cell migration toward a fibrinogen substrate (16 hrs at 37° C. in transwell chambers with or without 2 μM Bc-12, Bc-15 or their RGE mutants Mut-12 or Mut-15, compared to 200 μM GRGDSPK peptide) (SEQ ID NO: 11). (C) Effect of scFvs on breast cancer cell arrest during blood flow. Metastatic BMS cells, labeled with hydroethidine, were suspended in human blood (anticoagulated with 50 nM PPACK) and perfused over a collagen I matrix at a venous wall shear rate of 50 s^−1. Under these conditions, breast cancer cells arrest by αvβ3 mediated binding to adherent, thrombus forming platelets. Tumor cell adhesion was quantified by image acquisition at 30 predefined positions during blood flow. Left: representative images of platelet signal (thrombi, green fluorescence) and tumor cell signal (red fluorescence) at identical x,y positions. Right: Number of arrested tumor cells in the presence of 3 μM non-function blocking anti αv scFv Bc-20 or function blocking anti αvβ3 scFvs Bc-12 or Bc-15. (D) scFv Bc-15 is internalized by human breast cancer cells and reduces cell proliferation. Left: confocal images of BMS cells incubated for 4 hrs with FITC-Bc-15 at 4° C. (binding) versus 37° C. (allowing internalization). Right: Phase contrast images of BMS cell cultures 4 days after seeding in the presence of 2 μM RGE containing scFv Mut-15, or RGD containing Bc-15. (E) Effect of scFv Bc-12 on the viability of matrix deprived BMS breast cancer cells in ultra-low-adhesion plates in the presence or absence of 3.7 μM scFv, or 14.36 μM camptothecin as apoptosis inducing control. Measurement of apoptosis was based on cytoplasmic histone-associated DNA fragments after 20 hrs.
Cell adhesion and migration. Tumor cell adhesion under stationary conditions was analyzed as detailed earlier (19). Adhesion buffer was Hanks balanced salt solution (HBSS) pH 7.4, 0.5% BSA, 1 mM MgCl2, 0.2 mM MnCl2. For inhibition, cells were incubated for 5 min at RT either with 3 μM scFv or 200 μM GRGDSPK (SEQ ID NO: 11) peptide, then plated in the presence of inhibitor and allowed to attach for 30 min at 37° C. Haptotactic tumor cell migration toward fibrinogen was analyzed in transwell chambers as detailed earlier. Rolli, M., et al., Proc. Natl. Acad. Sci. U.S.A 100: 9482-9487, 2003. […]

Assay [2] deals with BMS human breast cancer cells. Nature of the assay: Haptotactic tumor cell migration toward fibrinogen (transwell). The format is cell-based. The settings on record: 200 μM peptide, 16 hrs at 37° C. Here is the method: as §1, with “(E) Effect of scFv Bc-12 on the viability of matrix deprived BMS breast cancer cells in ultra-low-adhesion plates in the presence or absence of 3.7 μM scFv, or 14.36 μM camptothecin as apoptosis inducing control. Measurement of apoptosis was based on cytoplasmic histone-associated DNA fragments after 20 hrs.” left out
Cell adhesion and migration. Tumor cell adhesion under stationary conditions was analyzed as detailed earlier (19). […] Haptotactic tumor cell migration toward fibrinogen was analyzed in transwell chambers as detailed earlier. […]

In assay [3] the test system is integrin αvβ3. Nature of the assay: Flow cytometry, scFv binding to human tumor cell panel. Here is the method: FIGS. 1A, 1B, 1C. Patient derived scFvs Bc-12 and Bc-15 recognize tumor cell integrin αvβ3 in a cation and activation dependent manner. Flow cytometric analyses in TBS with or without 1 mM Ca^2+, 1 mM Mg^2+, or 0.2 mM Mn^2+ as indicated. Binding of soluble scFv detected after incubation with anti-Flag M2 murine mAb followed by FITC-anti mouse F(ab′)2. (A) scFv binding to human melanoma cells (M21: αvβ3 plus other αv integrins) (M21-LIIb: αIIbβ3, no αv integrins) or lung adenocarcinoma cells (UCLA-P3: αv integrins, no β3 integrin). (B) scFv binding to M21 melanoma cells. (C) scFv binding to variants of MDA-MB 435 human breast cancer cells that lack (β^3−) or express αvβ3 either in a non-activated (β3WT, ParentCo) or activated form (β3D723R, Bone, Lung, and BMS metastatic cancer cells isolated from breast cancer patient blood).
Flow cytometry. scFv binding to human tumor cells was analyzed by flow cytometry, initially with cloned scFv phage and then with purified scFv protein. Per sample, 2×10^5 tumor cells were blocked with goat serum and incubated either with scFv phage (2-5×10^10) (1 h at RT) followed by mouse anti-M13 mAb (Serotec) (30 min on ice) and goat FITC-anti mouse (Pierce) (30 min on ice), or with purified scFv (1.25 to 40 μg/ml, routinely 10 to 15 μg/ml) (45 min on ice), followed by mouse anti-FLAG mAb M2 (Sigma) (30 min on ice) and goat FITC-anti mouse. Binding/washing buffer was TBS with or without divalent cations (1 mM Ca^2+, 1 mM Mg^2+, 0.2 mM Mn^2+). Alternatively, tumor cells were washed in 10 ml of plasma (prepared freshly from human blood anticoagulated with 50 nM D-Phe-D-Pro-D-arginyl chloromethyl ketone, PPACK, Felding-Habermann et al., J. Biol. Chem. 271: 5892-5900, 1996), resuspended in plasma and then incubated sequentially, without washing, with purified scFv (45 min on ice), followed by anti-FLAG M2 (30 min on ice) and FITC-anti mouse (30 min on ice). All samples were counter stained with propidium iodide (PI) and analyzed on a Becton-Dickinson FACScan, with live gate set to exclude PI positive cells.
To generate therapeutic reagents that specifically react with activated αvβ3, a phage display library of single chain antibody fragments (scFv) was exploited. This library was derived from cancer patient blood lymphocyte cDNA libraries and allowed us to test the hypothesis that the expressed immune repertoire contains antibodies that recognize integrin αvβ3, and distinguish between its activated and non-activated forms. Mao et al., Proc. Natl. Acad. Sci. U.S.A 96: 6953-6958, 1999. A subtractive panning approach was designed based on variants of MDA-MB 435 human breast cancer cells. […] Apparently, these cells are selected during metastasis, as variant cells isolated from lung and bone metastases in immune deficient mice express constitutively activated αvβ3. To establish a cell population that uniformly expresses non-activated αvβ3, MDA-MB 435 parental cells were cloned by limiting dilution, and clones tested for αvβ3 functionality. […] A cell line, MDA-MB 435 Lung-Lung, was established which expressed αvβ3 in a constitutively activated form. This variant stems from a lung metastase of an immune deficient mouse whose mammary fat pad had been injected with parental MDA-MB 435 cells. Felding-Habermann et al., Proc. Natl. Acad. Sci. U.S.A 98: 1853-1858, 2001; Rolli et al., Proc. Natl. Acad. Sci. U.S.A 100: 9482-9487, 2003. To enrich for the ability to colonize the lung from the blood stream, the Lung variant was subsequently injected intravenously, and tumor cells cultured 3 weeks later from the excised lung. Parent Combo cells were used to subtract the scFv phage library to eliminate antibodies against antigens shared by the MDA-MB 435 cell variants. […]
In general terms: In flow cytometry, cells or beads pass a laser one at a time.

Assay [4] deals with BMS breast cancer cells. Nature of the assay: Tumor cell arrest during blood flow. In kind it is cell-based. The conditions noted are these: 3 μM scFv, human blood, collagen I matrix, shear rate 50 s^−1. Here is the method:
FIGS. 3A, 3B, 3C, 3D, 3E. scFv Bc-12 and Bc-15 inhibit αvβ3 mediated adhesive breast cancer cell functions. (A) Adhesion of BMS human breast cancer cells to fibrinogen (Fg), vitronectin (VN) or type I collagen (Col I) in the absence or presence of 3 μM Bc-12, Bc-15 or their RGE mutants Mut-12, Mut-15, compared to 200 μM GRGDSPK peptide (SEQ ID NO: 11). Protein coating concentrations: 10 μg/ml (VN, Col I) or 20 μg/ml (Fg). Adhesion time: 30 min at 37° C. (B) Effect of scFvs on haptotactic BMS cell migration toward a fibrinogen substrate (16 hrs at 37° C. in transwell chambers with or without 2 μM Bc-12, Bc-15 or their RGE mutants Mut-12 or Mut-15, compared to 200 μM GRGDSPK peptide) (SEQ ID NO: 11). (C) Effect of scFvs on breast cancer cell arrest during blood flow. Metastatic BMS cells, labeled with hydroethidine, were suspended in human blood (anticoagulated with 50 nM PPACK) and perfused over a collagen I matrix at a venous wall shear rate of 50 s^−1. Under these conditions, breast cancer cells arrest by αvβ3 mediated binding to adherent, thrombus forming platelets. Tumor cell adhesion was quantified by image acquisition at 30 predefined positions during blood flow. Left: representative images of platelet signal (thrombi, green fluorescence) and tumor cell signal (red fluorescence) at identical x,y positions. […]
Tumor cell arrest during bloodflow. Breast cancer cell arrest during blood flow and interaction with platelets was measured as described. […] Adhesive events and cell interactions were visualized and recorded by fluorescence video microscopy and quantified by image acquisition at 30 predefined positions followed by computerized image analysis (MetaMorph, Universal Imaging). Tumor cells were stained with hydroethidine (red fluorescence) (20 μg/ml, 30 min, 37° C.), washed, and mixed with blood containing 10 μM mepacrine (green fluorescence). Blood cells, tumor cells, and platelets acquired green fluorescence and were visualized at 488/515 nm (excitation/emission). Tumor cells were identified by their unique red fluorescence at 543/590 nm. […]

Assay [5] has as its system human melanoma cells. The conditions noted are these: mouse model; cited from earlier work.

As for “GRGDSPK [a fibronectin derived peptide, reference compound]”, the “adhesion to immobilized fibrinogen” value in assay [1] is listed as “extent of inhibition by 3 μM scFv was similar to that observed with 200 μM GRGDSPK”. The fibrinogen directed migration result in assay [2] was “This effect was similar to that seen with 200 μM GRGDSPK”.

B1: Bc-20: non-RGD containing, non-function blocking anti αv scFv (protein)
scFv: MAQVQLVQSGGGLVQPGGSLRLSCAASGFTFSSYWMSWVRQAPGKGLEWVANIKQDGSEKYYVDSVKGRFTISRDNAKNSLYLQMNSLRAEDTAVYYCARDGGFAGWAFDIWGQGTTVTVSSGGGGSGGGGSGGGGSDIQMTQSPSALSASVGDRVTITCRASQGLDNYLAWYQLQPGKAPKLLIYDAFTLQSGVPSRFSGGGSGTDFTLTISSLQPEDFATYFCQQLQSYPLTFGGGTKVEIKRGLGGLVDYKDDD
With B1, the “reactivity with human tumor cells that express or lack αvβ3” value in assay [3] (M21, M21-LIIb, UCLA-P3 cells, flow cytometry) is recorded as “reacted with αv positive cells, regardless of the associated β subunit”. Also, the “cation requirement of binding” value in assay [3] (TBS with or without divalent cations) is given as “did not require divalent metal cations”. Also, the “breast cancer cell arrest during blood flow” value in assay [4] is listed as “no effect”.

B2: LM609: function blocking antibody against integrin αvβ3 (antibody, V domains shown)
VH: EVQLEESGGGLVKPGGSLKLSCAASGFAFSSYDMSWVRQIPEKRLEWVAKVSSGGGSTYYLDTVQGRFTISRDNAKNTLYLQMSSLNSEDTAMYYCARHNYGSFAYWGQGTLVTVSA
VL: ELVMTQTPATLSVTPGDSVSLSCRASQSISNHLHWYQQKSHESPRLLIKYASQSISGIPSRFSGSGSGTDFTLSINSVETEDFGMYFCQQSNSWPHTFGGGTKLEIKRA
Turning to B2, in assay [5], the “metastatic activity of human melanoma cells” value is recorded as “inhibited metastatic activity of human melanoma cells in a mouse model”.
